Here are results for nine molecules from patent US20230301926A1 (EVOX THERAPEUTICS, published 2023).

For experiment [1], the target named is T1, human serum albumin (labelled with Alexa Fluor 488) (human, UniProt P02768 25-609, Alexa Fluor 488 label (site not stated)).
T1 construct: Used at 80 µg/ml in the Optiprep gradient / dot-blot assays; also called HSA
As to the kind of experiment: Optiprep gradient and dot-blot of 4e10 HEK EVs incubated with 80 µg/ml Alexa Fluor 488 HSA. Here is the method:
This experiment was performed by incubating overnight at 4° C. 4e¹⁰ HEK EVs expressing the constructs detailed above with 80 µg/ml human serum albumin (labelled with Alexa Fluor 488) and a mix of tetraspanin antibody. The next day, EVs were separated by Optiprep gradient ultracentrifugation and 300 µl fractions were collected, 100 µl from each fraction were used for DOTBLOT analysis and 50 µl from three subsequent fractions were pulled and used for imaging (widefield and dSTORM) […] (CD9, CD63 and CD81, 1:100) labelled with Alexa […].

Experiment [2] has as its target T1, human serum albumin (labelled with …). As to the kind of experiment: Optiprep gradient ultracentrifugation and dot-blot of EVs incubated with Alexa Fluor 488 HSA. Here is the method:
Gradient separation was performed to assess the binding of albumin to EVs expressing ABD on the surface. The fusion constructs tested were: [0235] mCD63-Nluc (concentration: 1.37×10¹² particles/ml) [0236] mCD63-ABD-2nd loop Nluc (concentration: 6.5×10¹¹ particles/ml)
HEK EVs with albumin binding domain fused to different or both CD63 loops were incubated overnight at 4° C. 5 µl with 80 µg/ml human serum albumin (labelled with Alexa Fluor 488) and a mix of tetrspanin antibodies (CD9, CD63 and CD81, 1:100) labelled with Alexa Fluor 647. The next day, EVs were separated by Optiprep gradient ultracentrifugation and 300 µl fractions were collected, 100 µl from each fraction were used for DOTBLOT analysis and 50 µl from three subsequent fractions were pooled and used for imaging (widefield and dSTORM)

The target in another experiment is T2, FITC-human albumin (human, UniProt P02768 25-609, FITC label (site not stated)).
T2 construct: also called fluorescein isothiocyanate (FITC)-labeled albumin; FITC-albumin
T2 sequence (P02768 25-609 limits assumed): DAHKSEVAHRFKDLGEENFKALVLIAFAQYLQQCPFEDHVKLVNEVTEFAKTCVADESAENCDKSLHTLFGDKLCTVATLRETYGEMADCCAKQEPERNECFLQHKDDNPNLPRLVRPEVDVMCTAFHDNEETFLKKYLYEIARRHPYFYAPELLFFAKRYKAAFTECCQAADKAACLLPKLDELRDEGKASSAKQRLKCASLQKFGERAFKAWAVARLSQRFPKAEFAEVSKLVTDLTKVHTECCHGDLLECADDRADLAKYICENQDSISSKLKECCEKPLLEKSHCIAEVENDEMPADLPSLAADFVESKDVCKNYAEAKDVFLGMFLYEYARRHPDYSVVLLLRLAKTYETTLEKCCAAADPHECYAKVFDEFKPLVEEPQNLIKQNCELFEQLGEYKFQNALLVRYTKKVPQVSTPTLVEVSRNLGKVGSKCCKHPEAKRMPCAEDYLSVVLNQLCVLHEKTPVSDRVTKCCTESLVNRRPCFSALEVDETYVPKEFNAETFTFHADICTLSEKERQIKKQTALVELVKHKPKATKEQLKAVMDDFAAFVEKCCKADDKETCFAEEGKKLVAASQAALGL
As to the kind of experiment: in vitro albumin binding assay, protocol of Example 7.

The next experiment addresses T3, mouse serum albumin (mouse, UniProt P07724 25-608).
T3 construct: Albumin picked up by the EVs in the circulation of the mice
As to the kind of experiment: EVs recovered from mouse serum 10 min after injection, gradient separation and dot-blot with anti-mouse serum albumin antibody. On the procedure:
Mice were injected with mCD63-ABD-2nd loop Nluc HEK EVs or mCD63-Nluc (no ABD control). Serum was collected 10 minutes after injection and purified with size-exclusion columns (qEV) to isolate EVs. 2.5×10¹⁰ EVs were then incubated overnight at 4° C. with an antibody anti-mouse serum albumin (labelled with FITC) and a mix of tetraspanin antibodies (human specific CD9, CD63 and CD81, 1:100) labelled with Alexa Fluor 647. The next day, EVs were separated by Optiprep gradient ultracentrifugation and 300 µl fractions were collected, 100 µl from each fraction were used for DOTBLOT analysis and 50 µl from three subsequent fractions were pulled and used for imaging (widefield)

T1 sequence (P02768 25-609 limits assumed): as above

B1: hCD81-ABD-2ndloop-Nluc (other)
chain: MGVEGCTKCIKYLLFVFNFVFWLAGGVILGVALWLRHDPQTTNLLYLEMHLGDKPAPNTFYVGIYILIAVGAVMMFVGFLGCYGAIQESQCLLGTFFTCLVILFACEVAAGIWGFVNKDQIAKDVKQFYDQALQQAVVDDDANNAKAVVKTFHETLDCCGSTRQHDEAVDANSLAEAKVLANRELDKYGVSDFYKRLINKAKTVEGVEALKLHILAALPTRSTLTALTTSVLKNNLCPSGSNIISNLFKEDCHQKIDDLFSGKLYLIGIAAIVVAVIMIFEMILSMVLCCGIRNSSVYGSVFTLEDFVGDWRQTAGYNLDQVLEQGGVSSLFQNLGVSVTPIQRIVLSGENGLKIDIHVIIPYEGLSGDQMGQIEKIFKVVYPVDDHHFKVILHYGTLVIDGVTPNMIDYFGRPYEGIAVFDGKKITVTGTLWNGNKIIDERLINPDGSLLFRVTINGVTGWRLCERILA
notes: also called hCD81-ABD 2 nd-Nluc
B1: the binding result in experiment [1] was “binds”.

B2: hCD9-ABD-2ndloop-Nluc (other)
chain: MPVKGGTKCIKYLLFGFNFIFWLAGIAVLAIGLWLRFDSQTKSIMHFEQETNNNNSSFYTGVYILIGAGALMMLVGFLGCCGAVQESQCMLGLFFGFLLVIFAIEIAAAIWGYSHKDEVIKEVQEFYKDTYNKLKTKDEPQRETLKAIHYALNCCGLTRQHDEAVDANSLAEAKVLANRELDKYGVSDFYKRLINKAKTVEGVEALKLHILAALPTRAGGVEQFISDICPKKDVLETFTVKSCPDAIKEVFDNKFHIIGAVGIGIAVVMIFGMIFSMILCCAIRRNREMVGSVFTLEDFVGDWRQTAGYNLDQVLEQGGVSSLFQNLGVSVTPIQRIVLSGENGLKIDIHVIIPYEGLSGDQMGQIEKIFKVVYPVDDHHFKVILHYGTLVIDGVTPNMIDYFGRPYEGIAVFDGKKITVTGTLWNGNKIIDERLINPDGSLLFRVTINGVTGWRLCERILA
notes: also called hCD9-ABD 2 nd-Nluc
Consider B2, for which the binding result in experiment [1] is reported as “binds”.

B3: hCD81-ABD-2x-Nluc (ABD present in both loops) (other)
chain: MGVEGCTKCIKYLLFVFNFVFWLAGGVILGVALWLRHDPQTTNLLYLEMHLAEAKVLANRELDKYGVSDFYKRLINKAKTVEGVEALKLHILAALPMHLGDKPAPNTFYVGIYILIAVGAVMMFVGFLGCYGAIQESQCLLGTFFTCLVILFACEVAAGIWGFVNKDQIAKDVKQFYDQALQQAVVDDDANNAKAVVKTFHETLDCCGSTRQHDEAVDANSLAEAKVLANRELDKYGVSDFYKRLINKAKTVEGVEALKLHILAALPTRSTLTALTTSVLKNNLCPSGSNIISNLFKEDCHQKIDDLFSGKLYLIGIAAIVVAVIMIFEMILSMVLCCGIRNSSVYGSVFTLEDFVGDWRQTAGYNLDQVLEQGGVSSLFQNLGVSVTPIQRIVLSGENGLKIDIHVIIPYEGLSGDQMGQIEKIFKVVYPVDDHHFKVILHYGTLVIDGVTPNMIDYFGRPYEGIAVFDGKKITVTGTLWNGNKIIDERLINPDGSLLFRVTINGVTGWRLCERILA
notes: also called hCD81-ABDX2-Nluc
Consider B3, for which the binding result in experiment [1] is reported as “binds”.

B4: hCD81-ABD-1stloop-Nluc (other)
chain: MGVEGCTKCIKYLLFVFNFVFWLAGGVILGVALWLRHDPQTTNLLYLEMHLAEAKVLANRELDKYGVSDFYKRLINKAKTVEGVEALKLHILAALPMHLGDKPAPNTFYVGIYILIAVGAVMMFVGFLGCYGAIQESQCLLGTFFTCLVILFACEVAAGIWGFVNKDQIAKDVKQFYDQALQQAVVDDDANNAKAVVKTFHETLDCCGSTRSTLTALTTSVLKNNLCPSGSNIISNLFKEDCHQKIDDLFSGKLYLIGIAAIVVAVIMIFEMILSMVLCCGIRNSSVYGSVFTLEDFVGDWRQTAGYNLDQVLEQGGVSSLFQNLGVSVTPIQRIVLSGENGLKIDIHVIIPYEGLSGDQMGQIEKIFKVVYPVDDHHFKVILHYGTLVIDGVTPNMIDYFGRPYEGIAVFDGKKITVTGTLWNGNKIIDERLINPDGSLLFRVTINGVTGWRLCERILA
notes: also called hCD81-ABD 1 st-Nluc
Regarding B4, the binding result in experiment [1] is “binds”.

B5: hCD9-ABD-2x-Nluc (ABD present in both loops) (other)
chain: MPVKGGTKCIKYLLFGFNFIFWLAGIAVLAIGLWLRFDSQTKSIMHLAEAKVLANRELDKYGVSDFYKRLINKAKTVEGVEALKLHILAALPMHFEQETNNNNSSFYTGVYILIGAGALMMLVGFLGCCGAVQESQCMLGLFFGFLLVIFAIEIAAAIWGYSHKDEVIKEVQEFYKDTYNKLKTKDEPQRETLKAIHYALNCCGLTRQHDEAVDANSLAEAKVLANRELDKYGVSDFYKRLINKAKTVEGVEALKLHILAALPTRAGGVEQFISDICPKKDVLETFTVKSCPDAIKEVFDNKFHIIGAVGIGIAVVMIFGMIFSMILCCAIRRNREMVGSVFTLEDFVGDWRQTAGYNLDQVLEQGGVSSLFQNLGVSVTPIQRIVLSGENGLKIDIHVIIPYEGLSGDQMGQIEKIFKVVYPVDDHHFKVILHYGTLVIDGVTPNMIDYFGRPYEGIAVFDGKKITVTGTLWNGNKIIDERLINPDGSLLFRVTINGVTGWRLCERILA
notes: also called hCD9-ABDX2-Nluc
With B5, the binding result in experiment [1] is given as “binds”.

B6: hCD9-ABD-1stloop-Nluc (other)
chain: MPVKGGTKCIKYLLFGFNFIFWLAGIAVLAIGLWLRFDSQTKSIMHLAEAKVLANRELDKYGVSDFYKRLINKAKTVEGVEALKLHILAALPMHFEQETNNNNSSFYTGVYILIGAGALMMLVGFLGCCGAVQESQCMLGLFFGFLLVIFAIEIAAAIWGYSHKDEVIKEVQEFYKDTYNKLKTKDEPQRETLKAIHYALNCCGLTRAGGVEQFISDICPKKDVLETFTVKSCPDAIKEVFDNKFHIIGAVGIGIAVVMIFGMIFSMILCCAIRRNREMVGSVFTLEDFVGDWRQTAGYNLDQVLEQGGVSSLFQNLGVSVTPIQRIVLSGENGLKIDIHVIIPYEGLSGDQMGQIEKIFKVVYPVDDHHFKVILHYGTLVIDGVTPNMIDYFGRPYEGIAVFDGKKITVTGTLWNGNKIIDERLINPDGSLLFRVTINGVTGWRLCERILA
notes: also called hCD9-ABD 1 st-Nluc
In the case of B6, the binding result in experiment [1] is given as “binds”.

B7: mCD63-NanoLuc (other)
chain: MAVEGGMKCVKFLLYVLLLAFCACAVGLIAIGVAVQVVLKQAMHITHETTAGSLLPVVIIAVGAFLFLVAFVGCCGACKENYCLMITFAIFLSLIMLVEVAVAIAGYVFRDQVKSEFNKSFQQQMQNYLKDNKTATILDKLQKENNCCGATRSNYTDWENIPGMAKDRVPDSCCINITVGCGNDFKESTIHTQGCVETIAIWLRKNILLVAAAALGIAFVEVLGIIFSCCLVKSIRSGYEVMGSGSGSGSGSVFTLEDFVGDWRQTAGYNLDQVLEQGGVSSLFQNLGVSVTPIQRIVLSGENGLKIDIHVIIPYEGLSGDQMGQIEKIFKVVYPVDDHHFKVILHYGTLVIDGVTPNMIDYFGRPYEGIAVFDGKKITVTGTLWNGNKIIDERLINPDGSLLFRVTINGVTGWRLCERILAHHHHHH
notes: Control fusion of CD63 and nanoluc reporter lacking ABD, carried on EVs in the assays; His tag of the entry is called optional; also called mCD63-Nluc; control EVs
Take B7: the binding result in experiment [2] is given as “no binding (tested: 80 µg/ml human serum albumin)”.

B8: Lamp2b-ABD-NanoLuc (other)
chain: LKFEQHDEAVDANSLAEAKVLANRELDKYGVSDFYKRLINKAKTVEGVEALKLHILAALPFETGGAPMHISQAVHAAHAEINEAGRSIINFEKLCTSVYDFFVWLGRGHLLGRLAAIVGKQVLLGRKVVVVRSHCHWNDLAVIPAGVVHNWDFEPRKVSPSKPSFQEFVDWENVSPELNSTDQPFLCTGSGSGSGSGSLKPAGILIPIIVGAGLSGLIIVIVIAYVIGRRKSYAGAQTLGGGGSYIPEAPRDGQAYVRKDGEWVLLSTFLSPANGTPTPTPTPTGRSLYPSLEDLKVDKVIQAQTAFSANPANPAILSEASAPIPHDGNLYPRLYPELSQYMGLSLEGGQLGTPTPTPTPTGGSVFTLEDFVGDWRQTAGYNLDQVLEQGGVSSLFQNLGVSVTPIQRIVLSGENGLKIDIHVIIPYEGLSGDQMGQIEKIFKVVYPVDDHHFKVILHYGTLVIDGVTPNMIDYFGRPYEGIAVFDGKKITVTGTLWNGNKIIDERLINPDGSLLFRVTINGVTGWRLCERILA
notes: also called Lamp2B-ABD-Nluc; Lamp2b-ABD-Nluc
As for B8, the binding result (in experiment [1]; with FITC-human albumin) was “binds” throughout.

B9: mCD63-ABD 2nd loop-NanoLuc (other)
chain: MAVEGGMKCVKFLLYVLLLAFCACAVGLIAIGVAVQVVLKQAMHITHETTAGSLLPVVIIAVGAFLFLVAFVGCCGACKENYCLMITFAIFLSLIMLVEVAVAIAGYVFRDQVKSEFNKSFQQQMQNYLKDNKTATILDKLQKENNCCGATRRTQHDEAVDANSLAEAKVLANRELDKYGVSDFYKRLINKAKTVEGVEALKLHILAALPRTCTSGTRSNYTDWENIPGMAKDRVPDSCCINITVGCGNDFKESTIHTQGCVETIAIWLRKNILLVAAAALGIAFVEVLGIIFSCCLVKSIRSGYEVMGSGSGSGSGSVFTLEDFVGDWRQTAGYNLDQVLEQGGVSSLFQNLGVSVTPIQRIVLSGENGLKIDIHVIIPYEGLSGDQMGQIEKIFKVVYPVDDHHFKVILHYGTLVIDGVTPNMIDYFGRPYEGIAVFDGKKITVTGTLWNGNKIIDERLINPDGSLLFRVTINGVTGWRLCERILAHHHHHH
notes: also called mCD63-ABD-2nd loop Nluc; mCD63-ABD 2nd loop-Nluc
On to B9, for which the binding result in the experiment with mouse serum albumin is recorded as “binds”.
